Data published in article PMC3223204, “Implantation Serine Proteinase 1 Exhibits Mixed Substrate Specificity that Silences Signaling via Proteinase-Activated Receptors” (PLoS ONE, 2011).

What was measured:
[1] = molecular target: T1, human PAR1 (Homo sapiens, UniProt P25116, INS26FLNCCPGCCMEPA); assay: Release of N-terminal BAB motif from PAR1 on COS-1 cells; type: cell-based; details: 0.1 and 0.5 units per ml, 37°C, 30 minutes
T1 construct: expressed in transfected cells; host or cells: COS-1
T1 sequence (P25116 with tags, fused parts or gaps limits assumed): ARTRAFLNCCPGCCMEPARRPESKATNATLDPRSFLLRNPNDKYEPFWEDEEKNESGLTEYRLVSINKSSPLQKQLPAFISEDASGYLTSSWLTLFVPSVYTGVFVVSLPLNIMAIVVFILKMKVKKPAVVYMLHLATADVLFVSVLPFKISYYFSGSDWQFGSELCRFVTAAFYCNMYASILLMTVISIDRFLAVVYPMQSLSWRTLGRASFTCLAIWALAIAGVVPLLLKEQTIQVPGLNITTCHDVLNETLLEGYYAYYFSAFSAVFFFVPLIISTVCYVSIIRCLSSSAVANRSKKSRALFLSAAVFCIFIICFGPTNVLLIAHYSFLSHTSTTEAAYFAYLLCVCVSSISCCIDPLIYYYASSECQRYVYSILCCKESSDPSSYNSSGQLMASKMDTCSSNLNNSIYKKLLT
From the text: (§1) The biarsenical fluorochrome binding domain (BAB), containing a tetra-cysteine motif, […] for PAR1, […] for PAR2 and […] for PAR4 was inserted into the receptor N-terminal domains by introducing corresponding oligonucleotides just downstream of the signal peptide of PARs, after A26 for human PAR1, Q27 for human PAR2 and V25 for human PAR4. The PAR DNA constructs containing the N-terminal BAB domain and a YFP C-terminal fluorochrome tag were cloned in pCDNA3.1+ at the restriction enzyme sites between Eco RI and Xba I. COS-1 cells obtained from ATCC (Manassas, VA USA) were transected with the PAR constructs with the FuGENE6 transfection reagent (Roche Applied Bioscience). The expression level of the expressed receptor was quantified using a fluorescence plate reader, (Victor 4X, Perkin-Elmer), and confocal microscopy was used to monitor the receptor location by visualizing the receptor YFP tag. […] Then, the peptide(s) containing the receptor BAB tetracysteine motif released by proteinases from the receptor N-terminus into the cell culture supernatant was quantified using a Victor X4 fluorescent plate reader with an excitation wavelength of 540 nm and an emission wavelength monitored at 615 nm. […]

[2] = molecular target: T2, human PAR2 (Homo sapiens, UniProt P55085); assay: Release of N-terminal BAB motif from PAR2 on COS-1 cells; type: cell-based; details: 0.1 and 0.5 units per ml, 37°C, 30 minutes
T2 construct: expressed in transfected cells; host or cells: COS-1
T2 sequence (P55085 with tags, fused parts or gaps limits assumed): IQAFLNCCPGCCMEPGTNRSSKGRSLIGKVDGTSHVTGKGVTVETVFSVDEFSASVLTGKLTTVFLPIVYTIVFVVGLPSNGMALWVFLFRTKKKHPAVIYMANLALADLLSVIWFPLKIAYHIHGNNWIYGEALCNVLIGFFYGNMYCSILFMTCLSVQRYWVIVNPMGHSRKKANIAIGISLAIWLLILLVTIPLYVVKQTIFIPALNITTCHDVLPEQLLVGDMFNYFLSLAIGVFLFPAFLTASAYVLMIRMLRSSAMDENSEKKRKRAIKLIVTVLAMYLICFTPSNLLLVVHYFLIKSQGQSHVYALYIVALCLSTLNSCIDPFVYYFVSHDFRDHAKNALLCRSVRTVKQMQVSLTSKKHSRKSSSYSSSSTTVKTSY
From the text: as §1

[3] = molecular target: T3, human PAR4 (Homo sapiens, UniProt Q96RI0, INS25FLNCCPGCCMEP); assay: Release of N-terminal BAB motif from PAR4 on COS-1 cells; type: cell-based; details: 0.1 and 0.5 units per ml, 37°C, 30 minutes
T3 construct: expressed in transfected cells; host or cells: COS-1
T3 sequence (Q96RI0 with tags, fused parts or gaps): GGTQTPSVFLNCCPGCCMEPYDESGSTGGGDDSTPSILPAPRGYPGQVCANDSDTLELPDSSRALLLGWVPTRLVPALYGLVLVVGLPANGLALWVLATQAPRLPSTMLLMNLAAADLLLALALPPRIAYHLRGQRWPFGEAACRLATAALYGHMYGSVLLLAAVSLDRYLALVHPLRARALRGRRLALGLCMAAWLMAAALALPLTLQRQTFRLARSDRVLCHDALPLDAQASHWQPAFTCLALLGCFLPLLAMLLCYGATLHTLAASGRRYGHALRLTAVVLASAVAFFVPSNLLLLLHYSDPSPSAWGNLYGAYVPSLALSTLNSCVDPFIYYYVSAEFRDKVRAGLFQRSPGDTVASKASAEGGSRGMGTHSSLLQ
From the text: as §1

[4] = molecular target: T4, trypsin (Sus scrofa, UniProt P00761); assay: Effect of ISP1 on enzyme activity of trypsin; type: biochemical; details: data not shown
T4 construct: Porcine trypsin (cat. number T-3030; 14,500 units/mg); purchased Sigma-Aldrich T-3030 (printed as T0303); host or cells: porcine pancreas
T4 sequence (P00761 9-231): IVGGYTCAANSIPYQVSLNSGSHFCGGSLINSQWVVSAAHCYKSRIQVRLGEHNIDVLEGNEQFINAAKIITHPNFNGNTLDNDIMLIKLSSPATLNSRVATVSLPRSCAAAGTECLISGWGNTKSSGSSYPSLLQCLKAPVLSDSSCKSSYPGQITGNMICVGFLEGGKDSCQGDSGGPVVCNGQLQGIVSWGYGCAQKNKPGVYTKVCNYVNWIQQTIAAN

Inhibitory effect on enzyme activity of trypsin [4]: doesn't have any inhibitory effect
B1: ISP1: recombinant implantation serine proteinase 1 expressed in Pichia pastoris, also known as Mouse Prss28 (protein, UniProt Q924N9 27-274, looked up)
Serine protease 28: KPVGIVGGQRTPPGKWPWQVSLRMYSYEVNSWVHICGGSIIHPQWILTAAHCIQSQDADPAVYRVQVGEVYLYKEQELLNISRIIIHPDYNDVSKRFDLALMQLTALLVTSTNVSPVSLPKDSSTFDSTDQCWLVGWGNLLQRVPLQPPYQLHEVKIPIQDNKSCKRAYRKKSSDEHKAVAIFDDMLCAGTSGRGPCFGDSGGPLVCWKSNKWIQVGVVSKGIDCSNNLPSIFSRVQSSLAWIHQHIQ
modifications: recombinant, Pichia pastoris-expressed
notes: recombinant implantation serine proteinase 1 expressed in Pichia pastoris, also known as Mouse Prss28
Release of PAR1 N-terminal BAB domain (PAR cleavage activity) [1]: significant concentration-dependent PAR cleavage activity
Release of PAR2 N-terminal BAB domain (PAR cleavage activity) [2]: significant concentration-dependent PAR cleavage activity
Release of PAR4 N-terminal BAB domain (PAR cleavage activity) [3]: significant concentration-dependent PAR cleavage activity
